One molecule from patent US8058507B2, “HOPM1 mediated disease resistance to Pseudomonas syringae in Arabidopsis” (priority 2007, dated 2011) can be followed below.

The test system of one experiment is AtMIN7. As to the kind of experiment: Detection of polyubiquitinated AtMIN7 in planta. The experiment is classed as cell-based, Arabidopsis thaliana. Particulars: MG132-treated N. benthamiana leaves. From the text: Left: AtMIN7:HA and 6×His:HopM1-300, 6×His:HopM301-712 or 6×His:HopM1-712 were transiently co-expressed in MG132-treated N. benthamiana leaves. Ubiquitinated proteins were detected by western blot (WB) with a polyclonal ubiquitin (Ub) antibody (Sigma Co.). Right: AtMIN7:HA and 6×His:HopM1-712 were transiently co-expressed in 1% DMSO (−)- or MG132-treated N. benthamiana leaves. AtMIN7 was immunoprecipitated (IP) using a polyclonal AtMIN7 antibody. Ubiquitinated AtMIN7 protein was detected by western blot (WB) with a polyclonal ubiquitin (Ub) antibody (Sigma Co.). See Materials and Methods for transient expression and immunoprecipitation of AtMIN7 and HopM1 in N. benthamiana leaves.

Another experiment has as its system AtMIN10-HA. Put plainly: Immunoblot of AtMIN10-HA in transgenic plants infiltrated with ΔCEL mutant bacteria (pORF43). The experiment is classed as in vivo, Arabidopsis. Particulars: HopM1 delivered by 1×10^8 CFU/ml ΔCEL mutant bacteria (pORF43). How it is done:
In brief: leaf disc fractions were homogenized in 1×SDS-polyacrylamide gel electrophoresis (PAGE) sample buffer, boiled for 5 min, and centrifuged for 2 minutes. Proteins in the supernatant were separated on SDS-PAGE gels and transferred to Immobilon-P membrane for immunoblotting procedures (Millipore Corp., Bedford, Mass.).
Furthermore AtMIN10-HA stably expressed in transgenic plants was also destabilized by HopM1. Leaves of AtMIN10-HA transgenic plants were infiltrated with water or 1×10^8 CFU/ml ΔCEL mutant bacteria or ΔCEL mutant bacteria (pORF43). AtMIN10-HA was detected using the HA epitope antibody.
Background: Immunoblotting shows a protein as a band on a membrane.

The subject of the next experiment is Pst DC3000. Put plainly: Bacterial multiplication and disease symptoms in HopM1 transgenic Arabidopsis plants. Type of experiment: in vivo, Pseudomonas syringae. Particulars: full-length HopM1 expressed in transgenic Arabidopsis. Here is the method: (§1) Following inoculation, infected plants were monitored daily over a 3- to 4-day period for symptom development and bacterial multiplication. For experiments described in FIGS. 1 and 5, plants were sprayed with 30 μM dexamethasone (DEX) 24 h before bacterial inoculation (1×10^6 cfu/ml).
(§2) Leaves were harvested and surface sterilized as follows: 1) whole leaves were removed from a host plant and gently mixed in a 70% ethanol solution for 1 minute. Leaves were blotted briefly on paper towels then rinsed in sterile distilled water for 1 minute, then blotted dry on paper towels. Leaf disks were excised from leaves with a 0.5 cm^2 or smaller cork borer, depending on the size of the sample leaves; 2) leaf disks from the leaves of 2 or more independent replicate plants were pooled for a single tissue sample and placed in a 1.5-mL microfuge tube with 100 μL sterile distilled water, the amount of leaf tissue per tube was recorded as leaf surface area. Three or more samples were harvested for each time point. […] The number of serial dilutions necessary to get countable colonies were determined for each sample, however dilutions to 10^−7 were usually sufficient for any bacterial strain; 7) The samples were plated on the appropriate medium (e.g., Low salt Luria Bertani) supplemented with the necessary antibiotics to select for the specific inoculated bacterial strain. […]

In experiment [1] the test system is AtMIN2, AtMIN7, and AtMIN 10. Put plainly: Immunoblot of AtMIN-HA proteins transiently co-expressed with HopM1 in N. benthamiana leaves. Type of experiment: cell-based, Arabidopsis thaliana. The conditions noted are these: DEX-induced expression in N. benthamiana leaves. How it is done:
Oligonucleotide primers used for amplifying hopMl and AtMIN genes from Pst DC3000 genomic DNA or Arabidopsis total cDNA, as applicable, used for creating these expression vectors are shown in FIG. 14. Two days after leaf infiltration, 0.3 μM DEX was applied to induce the expression of HopM11-712, or HopM11-300 or HopM11-712. Three hours after DEX treatment, leaf discs were taken for subsequent analyses using immunoblotting or co-immunoprecipitation experiments (see, EXAMPLES herein for procedures).
Plant cells expressing 6×His-HopM1 and AtMIN-HA proteins in N. benthamiana leaves were engineered to co-express a second transiently expressed protein, either full-length 6×His-HopM1 or 6×His-HopM11-300. […] Specifically, AtMIN7-HA was pulled down with HopM11-300, but not with 6×His-HopM1301-712. Please note that membrane associated AtMIN 10-HA was preferably eliminated during bacterial infection. Arrows indicate lanes in which DEX-induced expression of full-length HopM1 destabilized AtMIN2, AtMIN7, and AtMIN 10 (FIG. 6B).
Expression Plasmids for Nicotiana cells: For transient expression studies in Nicotiana benthamiana; expression plasmids were engineered to express C-terminal HA epitope-tagged AtMIN proteins using a constitutive CaMV 35S promoter operably linked to AtMIN sequences. […]

The next experiment has as its system hrcC mutant. Put plainly: Bacterial multiplication in HopM1 transgenic Arabidopsis plants. The experiment is classed as in vivo, Pseudomonas syringae. Particulars: full-length HopM1 expressed in transgenic Arabidopsis. Here is the method:
as §1, §2

B1: full-length HopM1: Pst DC3000 type III effector, 712-aa virulence protein (SEQ ID NO:34) (protein)
chain: MISSRIGGAGGVELSRVNQQHDTVPAQTAHPNAVTAGMNPPLTPDQSGSHATESSSAGAARLNVAARHTQLLQAFKAEHGTAPVSGAPMISSRAALLIGSLLQAEPLPFEVMAEKLSPERYQLKQFQGSDLQQRLEKFAQPGQIPDKAEVGQLIKGFAQSVADQLEHFQLMHDASPATVGQHAKADKATLAVSQTALGEYAGRASKAIGEGLSNSIASLDEHISALDLTLQDAEQGNKESLHADRQALVDAKTTLVGLHADFVKSPEAKRLASVAAHTQLDNVVSDLVTARNTVGGWKGAGPIVAAAVPQFLSSMTHLGYVRLSTSDKLRDTIPETSSDANMLKASIIGMVAGIAHETVNSVVKPMFQAALQKTGLNERLNMVPMKAVDTNTVIPDPFELKSEHGELVKKTPEEVAQDKAFVKSERALLNQKKVQGSSTHPVGELMAYSAFGGSQAVRQMLNDVHQINGQTLSARALASGFGGAVSASSQTLLQLKSNYVDPQGRKIPVFTPDRAESDLKKDLLKGMDLREPSVRTTFYSKALSGIQSSALTSALPPVTAQAEGASGTLSAGAILRNMALAATGSVSYLSTLYTNQSVTAEAKALKAAGMGGATPMLDRTETALNNIRHPNRESLPHTFQKSTLSGIPRVAENAYHMGRGALQLPTQMAVDTVRVVDEGVLNAVASAREALKQPTKDDDALRALEEGLLDPR
modifications: 6xHis tag; Pseudomonas syringae pv. tomato str. DC3000
Turning to B1, the “polyubiquitination of AtMIN7” value with AtMIN7 is reported as “enhanced”. The “stability of AtMIN10-HA” value with AtMIN10-HA is “destabilized”. Besides, the “complementation effect on multiplication” value in the experiment with Pst DC3000 and in the experiment on hrcC mutant was “did not show this effect” in each case. Besides, the “destabilization of AtMIN2, AtMIN7 and AtMIN10” value in experiment [1] is reported as “destabilized”.
